Data on 22 molecules can be found in patent US20150266922A1 (GEORG AUGUST UNIVERSITAT GOTTINGEN STIFTUNG OFFENTLICHEN …, published 2015).

The labels stand for the following.
B1: DPP9-arm peptide (285-VEVIHVPSPALEERKTDSYR-304) (peptide)
peptide: VEVIHVPSPALEERKTDSYR
notes: also called peptide corresponding to the extended arm of DPP9

T2 sequence (Q86TI2 other isoform, or with tags, fused parts or gaps limits assumed, form in doubt): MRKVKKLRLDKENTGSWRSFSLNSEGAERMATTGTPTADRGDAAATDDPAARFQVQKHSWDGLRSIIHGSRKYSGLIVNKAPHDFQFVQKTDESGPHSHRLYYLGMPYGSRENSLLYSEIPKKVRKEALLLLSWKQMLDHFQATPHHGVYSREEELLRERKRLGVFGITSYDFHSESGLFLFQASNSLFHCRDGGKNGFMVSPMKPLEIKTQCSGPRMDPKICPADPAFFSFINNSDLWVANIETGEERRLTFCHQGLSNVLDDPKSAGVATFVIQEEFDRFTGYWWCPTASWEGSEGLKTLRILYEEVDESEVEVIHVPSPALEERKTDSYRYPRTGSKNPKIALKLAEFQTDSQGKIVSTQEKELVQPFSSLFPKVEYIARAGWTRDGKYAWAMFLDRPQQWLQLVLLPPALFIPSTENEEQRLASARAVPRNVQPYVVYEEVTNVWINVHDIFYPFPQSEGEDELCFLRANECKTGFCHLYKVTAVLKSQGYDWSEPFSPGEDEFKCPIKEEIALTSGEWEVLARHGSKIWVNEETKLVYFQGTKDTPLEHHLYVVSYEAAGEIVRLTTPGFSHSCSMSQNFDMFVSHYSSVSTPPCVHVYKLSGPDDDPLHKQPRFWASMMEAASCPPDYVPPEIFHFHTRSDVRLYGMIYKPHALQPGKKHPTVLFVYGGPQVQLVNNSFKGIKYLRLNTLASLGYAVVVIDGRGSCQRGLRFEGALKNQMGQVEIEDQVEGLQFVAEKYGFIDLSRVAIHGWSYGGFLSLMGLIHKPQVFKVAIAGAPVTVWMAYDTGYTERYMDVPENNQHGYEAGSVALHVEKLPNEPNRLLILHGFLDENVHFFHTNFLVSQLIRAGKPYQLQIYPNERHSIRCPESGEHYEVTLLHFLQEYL

The first assay deals with T1, SUMO1 (UniProt P63165 1-97, limits assumed).
T1 construct: Immobilized on CnBr Sepharose beads or ELISA wells, or free in solution; also called S1
T1 sequence (P63165 1-97 limits assumed): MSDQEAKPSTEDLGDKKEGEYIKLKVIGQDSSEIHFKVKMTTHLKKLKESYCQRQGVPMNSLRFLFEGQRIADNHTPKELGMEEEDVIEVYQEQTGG
The assay is described as follows: competition ELISA: SUMO1 pre-incubated with the peptide, then added to immobilized DPP9.
Procedure: ELISA: A 96 well plate (Immuno 96 MicroWell™ Solid Plates, Nunc) was coated with 600 ng purified recombinant proteins per well in 100 μl TB, overnight at 4° C. Next, wells were blocked with ELISA buffer (TB supplemented with 3% BSA) for 1 h at room temperature. After blocking, recombinant interacting proteins were added to the wells. Following 2 hours of incubation at 25° C., wells were washed four times. […] After incubation with secondary antibodies, wells were washed with ELISA buffer and ddH20. Reactions were developed with TMB-substrate reagent set from BD (OptEIA substrate). Absorbance was measured at 420 nm on an Appliskan microplate fluorimeter (Thermo Scientific) and the Skanit software. Experiments were performed at least three times, in triplicates.
Turning to B1, the binding result is on record as “binds”.

The next assay addresses T2, Dipeptidyl peptidase 9 (DPP9), recombinant wild-type (human, UniProt Q86TI2 1-863). In words: cell-based or functional assay.
As to AAASLRFLYEG [AAASLRFLYEG (SEQ ID NO: 44)], the “% DPP9 activity (Mean), 10 µM peptide” value turned out to be 91.2%.

TLRFLFEG [TLRFLFEG (SEQ ID NO: 41)]: the “% DPP9 activity (Mean), 10 µM peptide” value was found to be 29.2%. Still for that read-out and setting: then SLRFLYAG [SLRFLYAG (SEQ ID NO: 40)], with 16.3%; and SLRFLYEGAAA [SLRFLYEGAAA (SEQ ID NO: 45)], with 23.9%; and RRRRSLRFLFEG [RRRRSLRFLFEG (SEQ ID NO: 46)], with 92.2%. As for RRRRSLRFLYAG [RRRRSLRFLYAG (SEQ ID NO: 47)], the “% DPP9 activity (Mean), 10 µM peptide” value worked out at 91.5%. Same read-out and setting: as for SLRFLFAG [SLRFLFAG (SEQ ID NO: 39)], the figure is 15.3%.

The target in a further assay is T2, Dipeptidyl peptidase 9 (DPP9), …. In words: cell-based or functional assay. This is another data set of the same source.
For FLFEGQRIA [… (SEQ ID NO: 32)], the “% DPP9 activity (Mean), 14 µM peptide” value was 38.4%. Same read-out and setting: as for RFLFEGQRIAD [… (SEQ ID NO: 31)], the figure is 66.4%; as for SLRFLAEGQRIADNH [SLRFLAEGQRIADNH (SEQ ID NO: 21)], 72.9%. With SLRFLFEGQRIADNR [SLRFLFEGQRIADNR (SEQ ID NO: 16)], the “% DPP9 activity (Mean), 14 µM peptide” value was found to be 56.4%. Same read-out and setting: then SLRFLFEGQRI [… (SEQ ID NO: 27)], with 29.1%; and SLRFLFEAQRIADNH [SLRFLFEAQRIADNH (SEQ ID NO: 22)], with 19.5%; and SLRFLFDGQRIADNH [SLRFLFDGQRIADNH (SEQ ID NO: 17)], with 74.9%. The same measure, in the same setting: as for FLIEGQRI [FLIEGQRI (SEQ ID NO: 36)], the figure is 49%; as for FLFEGQRI [… (SEQ ID NO: 33)], 55.9%; as for RFLFEGQRIADNH [… (SEQ ID NO: 23)], 79.8%.

As for SLRFLFEGQR [… (SEQ ID NO: 28)], the “% DPP9 activity (Mean), 14 µM peptide” value is 18.4%.

Take SLRFLVEGQRIADNH [SLRFLVEGQRIADNH (SEQ ID NO: 19)]: the “% DPP9 activity (Mean), 14 µM peptide” value came to 28.6%.

With SLRFLWEGQRIADNH [SLRFLWEGQRIADNH (SEQ ID NO: 18)], the “% DPP9 activity (Mean), 14 µM peptide” value worked out at 26.9%. On to LFEGQRIADNH [… (SEQ ID NO: 24)], for which the “% DPP9 activity (Mean), 14 µM peptide” value worked out at 42.7%.
